According to patent publication US5691180:

Key:
[1] = target: iminobiotinylated bovine fetuin (bovine) (UniProt P12763)
[2] = target: IgG-Sepharose (Pharmacia); assay: IgG-Sepharose batch adsorption of conditioned medium, GalNAc-transferase activity assayed on the beads (Table 1B, Sepharose-IgG: applied 4914, flowthrough 214, bound 1853 units)

| Released activity (units) of GalNAc-transferase [1] | percent of applied activity bound [2] | Substance |
| --- | --- | --- |
| 9830 units | 37% | protein A-GalNAc-transferase fusion protein (pPROTA-CTc) (from UniProt P38507) (enzyme) |
| 8390 units |  | UDP-GalNAc: NeuAcα2,3Galβ-R β1,4-N-acetyl-galactosamine-transferase encoded by pCDM8-CT (full-length, wild type enzyme) |
